Assay results: patent publication US20200040401A1 (KAOHSIUNG MEDICAL UNIVERSITY, published 2020)

B1: glycine-N-methyltransferase (GNMT) (enzyme)
chain: VDSVYRTRSLGVAAEGLPDQYADGEAARVWQLYIGDTRSRTAEYKAWLLGLLRQHGCQRVLDVACGTGVDSIMLVEEGFSVTSVDASDKMLKYALKERWNRRHEPAFDKWVIEEANWMTLDKDVPQSAEGGFDAVICLGNSFAHLPDCKGDQSEHRLALKNIASMVRAGGLLVIDHRNYDHILSTGCAPPGKNIYYKSDLTKDVTTSVLIVNNKAHMVTLDYTVQVPGAGQDGSPGLSKFRLSYYPHCLASFTELLQAAFGGKCQHSVLGDFKPYKPGQTYIPCYFIHVLKRTD
B2: endogenous GNMT of mouse liver (enzyme, UniProt Q9QXF8 2-293, looked up)
chain: VDSVYRTRSLGVAAEGLPDQYADGEAARVWQLYIGDTRSRTAEYKAWLLGLLRQHGCHRVLDVACGTGVDSIMLVEEGFSVMSVDASDKMLKYALKERWNRRKEPSFDNWVIEEANWLTLDKDVLSGDGFDAVICLGNSFAHLPDCKGDQSEHRLALKNIASMVRPGGLLVIDHRNYDYILSTGCAPPGKNIYYKSDLTKDITTSVLTVNNKAHMVTLDYTVQVPGTGRDGSPGFSKFRLSYYPHCLASFTELVRAAFGGRCQHSVLGDFKPYKPGQAYVPCYFIHVLKKTD

Experiments:
[1] = target: phosphatidylinositol 3,4,5-trisphosphate Rac exchange factor 2 (PREX2) (UniProt Q70Z35 1-1606, limits assumed); assay: cell-based or functional assay
[2] = target: endogenous PREX2 of mouse liver (mouse, UniProt Q3LAC4 1-1598, limits assumed); assay: reciprocal co-IP, mouse liver lysates (FIG. 1B)
Source text: FIG. 1B depicts that mouse liver lysates were used for reciprocal co-IP assay followed by IB analysis.
Please refer to FIG. 1A to FIG. 1G, which illustrates that GNMT interacts with PREX2 and negatively regulates PREX2-mediated AKT signaling. As the data in FIG. 1A illustrated, GNMT interacted with endogenous PREX2. […] To map the binding domain, different Myc-tagged PREX2 truncated mutants were co-expressed with Flag-tagged GNMT in HEK293T cells.

phosphatidylinositol 3,4,5-trisphosphate Rac exchange factor 2 (PREX2), sequence (Q70Z35 whole entry): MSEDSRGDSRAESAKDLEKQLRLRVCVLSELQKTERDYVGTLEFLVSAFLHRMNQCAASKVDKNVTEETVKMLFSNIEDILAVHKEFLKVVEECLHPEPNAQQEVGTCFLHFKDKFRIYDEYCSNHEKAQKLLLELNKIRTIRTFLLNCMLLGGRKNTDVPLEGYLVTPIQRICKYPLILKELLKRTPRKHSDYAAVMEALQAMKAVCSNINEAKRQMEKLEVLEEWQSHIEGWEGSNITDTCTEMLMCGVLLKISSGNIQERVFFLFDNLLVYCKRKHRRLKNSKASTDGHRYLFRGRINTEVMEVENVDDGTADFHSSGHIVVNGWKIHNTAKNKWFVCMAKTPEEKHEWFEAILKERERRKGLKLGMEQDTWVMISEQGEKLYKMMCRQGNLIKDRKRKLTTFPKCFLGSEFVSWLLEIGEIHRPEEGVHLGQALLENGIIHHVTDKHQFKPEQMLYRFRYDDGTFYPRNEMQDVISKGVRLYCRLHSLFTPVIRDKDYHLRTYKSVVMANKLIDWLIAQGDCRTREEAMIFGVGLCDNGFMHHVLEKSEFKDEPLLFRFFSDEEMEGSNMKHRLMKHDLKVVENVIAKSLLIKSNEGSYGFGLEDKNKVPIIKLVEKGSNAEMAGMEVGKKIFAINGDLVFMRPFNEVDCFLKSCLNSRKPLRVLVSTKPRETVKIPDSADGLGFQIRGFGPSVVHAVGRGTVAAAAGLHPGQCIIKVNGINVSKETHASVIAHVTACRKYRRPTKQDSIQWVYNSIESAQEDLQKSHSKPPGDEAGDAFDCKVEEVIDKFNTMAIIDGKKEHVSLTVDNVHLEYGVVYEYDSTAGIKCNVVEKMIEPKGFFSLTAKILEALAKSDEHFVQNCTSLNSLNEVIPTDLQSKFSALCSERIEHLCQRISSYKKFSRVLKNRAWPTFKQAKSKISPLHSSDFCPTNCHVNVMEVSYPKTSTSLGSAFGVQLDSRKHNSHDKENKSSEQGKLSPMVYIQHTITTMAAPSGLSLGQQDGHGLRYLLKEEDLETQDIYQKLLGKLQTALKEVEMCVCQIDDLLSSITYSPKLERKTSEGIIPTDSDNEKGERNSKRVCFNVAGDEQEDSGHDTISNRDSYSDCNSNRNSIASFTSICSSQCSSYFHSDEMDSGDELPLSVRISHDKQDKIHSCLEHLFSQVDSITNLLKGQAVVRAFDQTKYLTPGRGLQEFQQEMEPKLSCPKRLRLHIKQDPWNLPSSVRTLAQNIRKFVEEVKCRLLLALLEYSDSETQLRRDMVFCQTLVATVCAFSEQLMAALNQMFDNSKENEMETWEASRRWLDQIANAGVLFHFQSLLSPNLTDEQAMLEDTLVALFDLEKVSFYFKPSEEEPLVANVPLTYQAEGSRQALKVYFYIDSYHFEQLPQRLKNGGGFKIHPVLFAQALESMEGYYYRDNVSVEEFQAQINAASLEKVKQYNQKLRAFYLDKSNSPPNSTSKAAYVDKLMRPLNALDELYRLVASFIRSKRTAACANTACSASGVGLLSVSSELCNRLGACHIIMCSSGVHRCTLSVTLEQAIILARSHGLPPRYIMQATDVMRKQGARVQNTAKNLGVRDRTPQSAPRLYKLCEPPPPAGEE
endogenous PREX2 of mouse liver, sequence (Q3LAC4 whole entry): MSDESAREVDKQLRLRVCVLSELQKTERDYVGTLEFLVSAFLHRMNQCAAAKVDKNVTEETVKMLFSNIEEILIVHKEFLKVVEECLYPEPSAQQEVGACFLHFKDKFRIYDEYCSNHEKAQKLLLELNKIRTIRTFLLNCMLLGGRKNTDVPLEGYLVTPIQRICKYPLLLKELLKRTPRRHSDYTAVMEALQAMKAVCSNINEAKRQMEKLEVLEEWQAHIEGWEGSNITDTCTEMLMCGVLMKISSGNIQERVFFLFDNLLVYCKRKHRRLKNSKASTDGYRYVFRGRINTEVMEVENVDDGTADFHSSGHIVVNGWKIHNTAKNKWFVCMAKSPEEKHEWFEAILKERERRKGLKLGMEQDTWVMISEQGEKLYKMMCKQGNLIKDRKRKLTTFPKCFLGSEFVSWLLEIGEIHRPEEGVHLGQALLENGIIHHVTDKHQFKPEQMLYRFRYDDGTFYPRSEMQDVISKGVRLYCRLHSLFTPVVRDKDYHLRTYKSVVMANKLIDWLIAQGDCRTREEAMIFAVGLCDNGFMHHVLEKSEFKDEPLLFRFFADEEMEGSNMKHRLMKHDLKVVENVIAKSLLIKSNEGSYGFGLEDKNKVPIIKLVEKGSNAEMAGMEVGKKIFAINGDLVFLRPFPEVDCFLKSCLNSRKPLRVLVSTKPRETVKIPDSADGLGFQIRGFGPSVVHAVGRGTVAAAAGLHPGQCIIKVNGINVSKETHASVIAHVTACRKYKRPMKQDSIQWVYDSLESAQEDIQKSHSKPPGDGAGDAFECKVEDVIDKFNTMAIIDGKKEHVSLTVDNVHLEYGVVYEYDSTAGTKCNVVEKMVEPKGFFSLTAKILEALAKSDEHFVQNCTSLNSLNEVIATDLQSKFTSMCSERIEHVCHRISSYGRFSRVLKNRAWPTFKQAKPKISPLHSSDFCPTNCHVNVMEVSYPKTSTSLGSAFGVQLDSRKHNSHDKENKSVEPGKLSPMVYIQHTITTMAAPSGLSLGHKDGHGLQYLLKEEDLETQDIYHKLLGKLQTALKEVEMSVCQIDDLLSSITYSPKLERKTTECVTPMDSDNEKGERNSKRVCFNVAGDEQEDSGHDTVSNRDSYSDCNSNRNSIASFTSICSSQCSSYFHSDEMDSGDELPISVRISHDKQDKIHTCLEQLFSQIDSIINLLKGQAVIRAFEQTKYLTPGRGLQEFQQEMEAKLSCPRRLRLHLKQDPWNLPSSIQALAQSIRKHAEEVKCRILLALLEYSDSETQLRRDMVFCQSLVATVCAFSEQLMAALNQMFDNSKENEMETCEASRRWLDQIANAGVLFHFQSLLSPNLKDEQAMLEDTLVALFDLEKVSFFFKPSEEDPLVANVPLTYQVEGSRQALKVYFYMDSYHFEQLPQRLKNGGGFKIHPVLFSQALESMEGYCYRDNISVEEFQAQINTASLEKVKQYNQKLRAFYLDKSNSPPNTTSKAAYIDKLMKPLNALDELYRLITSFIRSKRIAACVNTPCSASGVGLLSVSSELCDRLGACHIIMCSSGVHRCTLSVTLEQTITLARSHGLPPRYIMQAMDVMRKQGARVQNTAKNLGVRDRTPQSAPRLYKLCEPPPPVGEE

Row | Binder | PREX2 half-life (pulse-chase, 35S-Methionine/Cysteine, Huh7 cells) [1] [h] | binding result [2]
1 | B1 | 9.4 | 
2 | B2 |  | binds
